Like-named read-outs stand apart in the source and are kept apart here.
How the values were obtained:
[1] = biological target: dimAβ (dimeric Aβ variant: two Aβ40 units linked in one polypeptide chain through a flexible glycine-serine-rich linker) (UniProt P05067); experiment: ThT fluorescence aggregation kinetics; dimAβ at pH 7.4, concentration series, 37 °C, 150 mM NaCl, 1 µM ThT, microplate; lag-free oligomerization phase above the critical oligomer concentration
[2] = biological target: dimAβ (dimeric Aβ variant: two Aβ40 units linked in one polypeptide chain through a flexible glycine-serine-rich linker) (UniProt P05067); experiment: as above; remark: listed apart in the source
[3] = biological target: dimAβ (dimeric Aβ variant: two Aβ40 units linked in one polypeptide chain through a flexible glycine-serine-rich linker) (UniProt P05067); experiment: ThT fluorescence aggregation kinetics; dimAβ at pH 5.6, concentrations down to 0.4 µM, 37 °C, 150 mM NaCl

With “dimAβ (dimeric Aβ variant: two Aβ40 units linked in one polypeptide chain through a flexible glycine-serine-rich linker) (from UniProt P05067 672-711; P05067 672-711)” the critical oligomer concentration (COC) [1] was 1 µM, the critical oligomer concentration (COC) [2] was 1.5 µM and the critical oligomer concentration (COC) at pH 5.6 [3] was < 0.4 µM.

Source: article PMC8324842
